Reference: paper PMC8379176 (Nature Communications, 2021)

System: ghrelin receptor (WT or mutants)
Test: Cell-surface expression assay (FACS)
Format: cell-based, human
Procedure: Cell-surface expression for each mutant was monitored by a fluorescence-activated cell sorting (FACS) assay. In brief, the expressed cells were incubated with mouse anti-HA-FITC antibody (Sigma) at a dilution of 1:200 for 20 min at 4 °C, and then a 9-fold excess of PBS was added to cells. […] The FACS data were analyzed by BD Accuri C6 software 1.0.264.21. The gating strategy and calculation method of expression are shown in Supplementary Fig. 11.
Supplementary Figure 11 | Gating strategy of cell surface expression assay. Circle a gate P1 in the scatter map (black circle). The cells shown in the histogram map are all the cells in the gate P1 in the scatter map. Fluorescence signal intensity (FITC) is presented by […]. With the Blank sample as the reference value of background fluorescence signal (a), the fluorescence signal histogram map is divided into two regions. The left region represents the negative cell community (FITC-), while the right region represents the positive cell community (FITC+). The expression level of cell surface wild-type (WT) ghrelin receptor (b) can be calculated as follows:
(M(FITC+)-M(FITC-))×(FITC+% Parent). M, mean fluorescence intensity. The expression level of the ghrelin receptor mutant is calculated similarly to WT receptor and then is normalized with the WT to calculate the relative expression value. […]

| Molecule | Cell-surface expression (replicate 1) [%] | Cell-surface expression (replicate 2) [%] | Cell-surface expression (replicate 3) [%] | Cell-surface expression (replicate 4) [%] | Cell-surface expression (replicate 5) [%] |
| --- | --- | --- | --- | --- | --- |
| F2796.51A (protein, SNAP tag labelled with SNAP-Lumi4-Tb; left off: SNAP, N-terminal, kept) MWNATPSEEPGFNLTLADLDWDASPGNDSLGDELLQLFPAPLLAGVTATCVALFVVGIAGNLLTMLVVSRFRELRTTTNLYLSSMAFSDLLIFLCMPLDLVRLWQYRPWNFGDLLCKLFQFVSESCTYATVLTITALSVERYFAICFPLRAKVVVTKGRVKLVIFVIWAVAFCSAGPIFVLVGVEHENGTDPWDTNECRPTEFAVRSGLLTVMVWVSSIFFFLPVFCLTVLYSLIGRKLWRRRRGDAVVGASLRDQNHKQTVKMLAVVVFAFILCWLPAHVGRYLFSKSFEPGSLEIAQISQYCNLVSFVLFYLSAAINPILYNIMSKKYRVAVFRLLGFEPFSQRKLSTLKDESSRAWTESSINT | 103.70 | 100.07 | 101.03 | 106.36 | 95.20 |
| F2866.58A (protein, SNAP tag labelled with SNAP-Lumi4-Tb; left off: SNAP, N-terminal, kept) MWNATPSEEPGFNLTLADLDWDASPGNDSLGDELLQLFPAPLLAGVTATCVALFVVGIAGNLLTMLVVSRFRELRTTTNLYLSSMAFSDLLIFLCMPLDLVRLWQYRPWNFGDLLCKLFQFVSESCTYATVLTITALSVERYFAICFPLRAKVVVTKGRVKLVIFVIWAVAFCSAGPIFVLVGVEHENGTDPWDTNECRPTEFAVRSGLLTVMVWVSSIFFFLPVFCLTVLYSLIGRKLWRRRRGDAVVGASLRDQNHKQTVKMLAVVVFAFILCWLPFHVGRYLASKSFEPGSLEIAQISQYCNLVSFVLFYLSAAINPILYNIMSKKYRVAVFRLLGFEPFSQRKLSTLKDESSRAWTESSINT | 90.14 | 93.12 | 89.15 | 93.89 | 90.00 |
| R2836.55A (protein, SNAP tag labelled with SNAP-Lumi4-Tb; left off: SNAP, N-terminal, kept) MWNATPSEEPGFNLTLADLDWDASPGNDSLGDELLQLFPAPLLAGVTATCVALFVVGIAGNLLTMLVVSRFRELRTTTNLYLSSMAFSDLLIFLCMPLDLVRLWQYRPWNFGDLLCKLFQFVSESCTYATVLTITALSVERYFAICFPLRAKVVVTKGRVKLVIFVIWAVAFCSAGPIFVLVGVEHENGTDPWDTNECRPTEFAVRSGLLTVMVWVSSIFFFLPVFCLTVLYSLIGRKLWRRRRGDAVVGASLRDQNHKQTVKMLAVVVFAFILCWLPFHVGAYLFSKSFEPGSLEIAQISQYCNLVSFVLFYLSAAINPILYNIMSKKYRVAVFRLLGFEPFSQRKLSTLKDESSRAWTESSINT | 56.22 | 65.89 | 64.91 | 66.07 | 63.09 |
| Q3027.32A (protein, SNAP tag labelled with SNAP-Lumi4-Tb; left off: SNAP, N-terminal, kept) MWNATPSEEPGFNLTLADLDWDASPGNDSLGDELLQLFPAPLLAGVTATCVALFVVGIAGNLLTMLVVSRFRELRTTTNLYLSSMAFSDLLIFLCMPLDLVRLWQYRPWNFGDLLCKLFQFVSESCTYATVLTITALSVERYFAICFPLRAKVVVTKGRVKLVIFVIWAVAFCSAGPIFVLVGVEHENGTDPWDTNECRPTEFAVRSGLLTVMVWVSSIFFFLPVFCLTVLYSLIGRKLWRRRRGDAVVGASLRDQNHKQTVKMLAVVVFAFILCWLPFHVGRYLFSKSFEPGSLEIAQISAYCNLVSFVLFYLSAAINPILYNIMSKKYRVAVFRLLGFEPFSQRKLSTLKDESSRAWTESSINT | 99.52 | 91.82 | 87.39 | 99.41 | 85.20 |
